Test results as given in patent US20260116946A1, “NOVEL CD200 FUSION PROTEINS” (DUCENTIS BIOTHERAPEUTICS LIMITED, priority 2022, published 2026).
Residue numbers refer to the chain shown, from its start. Names and notes keep the numbering of the source. Read-outs that look alike come from different tables or passages of the source. Each block holds one molecule with its values, some of them ahead of it.

Legend:
[1] = molecular target: Recombinant Human CD200R, His-tagged (Creative Biomart CD200R1-320H) (human) (UniProt Q8TD46); test: SPR (BIAcore T200), CD200-Fc captured on anti-human Fc, human CD200R in solution, 25 C
[2] = molecular target: Recombinant Cyno CD200R, His-tagged (Creative Biomart CD200R1-3483C) (cynomolgus) (UniProt G7NZT0); test: SPR (BIAcore T200), CD200-Fc captured on anti-human Fc, cyno CD200R in solution, 25 C, mean of two runs
[3] = molecular target: Recombinant Human CD200R, His-tagged (Creative Biomart CD200R1-320H) (human) (UniProt Q8TD46); test: SPR (BIAcore), DS-155 captured via anti-human Fc, HuCD200R1 as analyte, DRC = 500 nM to 31.25 nM (5 curves), 25 °C, 1:1 Binding fit; Run 1
[4] = molecular target: Recombinant Cyno CD200R, His-tagged (Creative Biomart CD200R1-3483C) (cynomolgus) (UniProt G7NZT0); test: SPR (BIAcore), DS-155 captured via anti-human Fc, CynoCD200R1 as analyte, DRC = 1000 nM to 62.5 nM (5 curves), 25 °C, 1:1 Binding fit; Run 2
[5] = molecular target: Recombinant Human CD200R, His-tagged (Creative Biomart CD200R1-320H) (human) (UniProt Q8TD46); test: SPR (BIAcore), DS-155 captured via anti-human Fc, HuCD200R1 as analyte, DRC = 500 nM to 31.25 nM (5 curves), 25 °C, 1:1 Binding fit; Run 2
[6] = molecular target: Recombinant Cyno CD200R, His-tagged (Creative Biomart CD200R1-3483C) (cynomolgus) (UniProt G7NZT0); test: SPR (BIAcore T200), CD200-Fc captured on anti-human Fc, cyno CD200R in solution, 25 C
[7] = molecular target: Recombinant Cyno CD200R, His-tagged (Creative Biomart CD200R1-3483C) (cynomolgus) (UniProt G7NZT0); test: SPR (BIAcore), DS-155 captured via anti-human Fc, CynoCD200R1 as analyte, DRC = 1000 nM to 62.5 nM (5 curves), 25 °C, 1:1 Binding fit; Run 1
[8] = molecular target: Recombinant Human CD200R, His-tagged (Creative Biomart CD200R1-320H) (human) (UniProt Q8TD46); test: SPR (BIAcore T200), CD200-Fc captured on anti-human Fc, human CD200R in solution, 25 C, mean of two runs
[9] = molecular target: Recombinant Human CD200R, His-tagged (Creative Biomart CD200R1-320H) (human) (UniProt Q8TD46); test: not described (affinity label of the construct for CD200R)
[10] = molecular target: T1, muCD200R-Fc (Creative Biomart CD200R1-458M) (mouse, UniProt Q9ES57 26-238); test: SPR, muCD200R-Fc captured on anti-human IgG Fc, CD200 monomers in solution
T1 construct: Bought reagent; also called captured CD200R; not shown: Fc part of the bought fusion; captured on anti-human IgG Fc
T1 sequence (looked up): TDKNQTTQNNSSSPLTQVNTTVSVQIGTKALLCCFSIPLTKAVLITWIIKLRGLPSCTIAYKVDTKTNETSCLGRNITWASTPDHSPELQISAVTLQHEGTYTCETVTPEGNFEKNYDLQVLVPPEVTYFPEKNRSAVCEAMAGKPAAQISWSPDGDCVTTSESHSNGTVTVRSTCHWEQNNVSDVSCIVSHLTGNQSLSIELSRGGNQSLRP
Method: For human CD200 constructs: anti-human Fc (GE Healthcare) was covalently immobilized on a BIAcore CM5 sensor chip (Cytiva, BR100530) by amine coupling using a Cytiva kit (BR100839) following the manufacturer's instructions, targeting immobilization of 8,000-11,000 RU. CD200-Fc proteins were diluted to 0.5 μg/mL to 4 μg/mL in running Buffer (1×HBS-EP+pH7.4 (Cytiva BR100669), HEPES Buffered Saline pH 7.4 containing 3 mM EDTA and 0.05% v/v Surfactant P20) and flowed for 25 to 100 seconds at […] over the immobilized Anti-Human IgG Fc, with a stabilization time of 60 seconds. Between 35 and 250 RUs of CD200-Fc were captured, with higher RUs used for cynomolgus CD200R binding experiments. […] Analysis temperature was 25° C. This was followed by regeneration of the surface with 30-90 second pulse of 3M MgCl₂ flowed at 30 μL/min flow rate followed by stabilization of the surface with 60 second flow of running buffer.
(§1) For mouse CD200 constructs, muCD200R-Fc (Creative Biomart CD200R1-458M) diluted to 1 μg/mL in running buffer was flowed over the immobilized Anti-Human IgG Fc, with CD200 monomers serially diluted and flowed over captured CD200R. Other details were as above. Data analysis: experimental sensorgrams were analyzed in BIAevaluation software (GE Healthcare). The curves obtained were fitted to 1:1 Langmuir binding model by setting Rmax and RI as local parameters. Rate equations using standard parameters (e.g. ligand concentration, time) were used for iterative curve fitting. Closeness of fit was determined by algorithms provided by the manufacturer in the BIAevaluation software, and data accepted if the Chi² value was less than 10% of Rₘₐₓ, and the U value was less than or equal to 15.

muCD200R-Fc = molecular target: T2, muCD200R-Fc (Mus musculus, UniProt Q9ES57); test: BIAcore SPR binding of murine CD200 variants to muCD200R-Fc
T2 construct: purchased Creative Biomart CD200R1-458M
T2 sequence (Q9ES57 26-238 limits assumed): T1 sequence (looked up)
Method: as §1, with “Chi^2” for “Chi²”, “Rmax,” for “Rₘₐₓ,”
Murine CD200 constructs used Uniprot sequence O54901, containing the signal peptide and extracellular domains. Mutation numbers refer to the full Uniprot sequences including signal peptide.
Proteins were generated by transient transfection of pcDNA 3.1-based expression plasmids into CHO-3E7 cells using Polyethyleneimine (PEI). 24 hours post transfection, cultures were shifted to 32° C., fed with 10% feed C, glutamine, glucose and […] Sodium butyrate; supernatants were harvested and filtered at day 7. Purification was performed at 4° C. using MabSelect SuRe 5 ml affinity columns (Cytiva), pre-equilibrated with 50 mM Sodium Phosphate, 150 mM NaCl PH 7.4, at a flowrate of 3 mL/min on a AKTA Pure platform. The column was washed with equilibration buffer and bound protein eluted using 20 mM sodium acetate, 150 mM NaCl pH 3.5. Elutes were neutralized with 10% v/v 1 M Tris pH 8.0 and analysed by SDS-PAGE. Pooled fractions were concentrated to 5 mL and subjected to gel-filtration chromatography (Hiload 16/600 Superdex-200 pg column) on a AKTA Pure platform. The protein was processed in 50 mM Sodium Phosphate, 150 mM NaCl pH 7.4 buffer system at 1.2 mL/min. Fractions containing protein were pooled and concentrated using an Amicon Ultra Centricon (10 kDa molecular weight cut-off) to 1.33 mg/mL (measured at UV 280 nm). The purified material was subjected to SEC-HPLC, LC-MS and EndoSafe LAL cartridge test to assess protein purity, molecular mass and endotoxin content, respectively. Mouse CD200-his proteins were purified with Ni-NTA agarose resin using standard methodology. All proteins were stored at −80° C.

male DBA/1J mice = test: Mouse collagen-induced arthritis (CIA) model, preventative dosing; type: in vivo; conditions: 3 mg/kg once every 3 days, day 22 to 36; scores day 25-36
Method: Wild type (DS-198) and higher affinity (DS-227) murine CD200-Fc proteins were tested using a CIA model by initiating dosing just prior to symptom onset. Arthritis was induced in male DBA/1J mice by intradermal injection of bovine type II collagen in CFA (complete Freund's adjuvant) on day 1, followed by a booster injection in incomplete Freund's adjuvant on day 21. […] Clinical scores of paw arthritis (blinded assessment) were measured from day 25-36 on alternate days. The data in FIG. 9 are shown as Mean±SEM. **p<0.01; ***p<0.001 vs Disease+Dexa, Disease+DS-198, & Disease+DS-227. Two-way RM ANOVA followed by Tukey's multiple comparisons test.

[11] = murine CD200, stated in text, read-out: binding affinity

Recombinant Human CD200R, His-tagged (Creative Biomart CD200R1-320H) (human), sequence (Q8TD46 27-266 limits assumed): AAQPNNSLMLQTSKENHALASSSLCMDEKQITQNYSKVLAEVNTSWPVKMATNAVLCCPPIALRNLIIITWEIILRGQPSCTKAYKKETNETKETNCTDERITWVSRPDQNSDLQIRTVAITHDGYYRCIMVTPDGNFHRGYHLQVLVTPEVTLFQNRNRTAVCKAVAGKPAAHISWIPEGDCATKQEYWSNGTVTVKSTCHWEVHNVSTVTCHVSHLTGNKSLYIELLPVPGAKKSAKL

Kd (muCD200R-Fc; [11]): 43 nM
Kd (muCD200R-Fc; murine CD200 variants, table head prints no unit, nM, read-out: KD): 43.3 ± 4.9 nM
fold higher binding affinity than wild type (muCD200R-Fc; versus wild type murine CD200): approximately 14 fold
B2: H82Y, T125I: murine CD200 combination variant H82Y, T125I of Table 7 (protein)
chain: QVEVVTQDERKALHTTASLRCSLKTSQEPLIVTWQKKKAVSPENMVTYSKTYGVVIQPAYKDRINVTELGLWNSSITFWNTTLEDEGCYMCLFNIFGSQKVSGTACLTLYVQPIVHLHYNYFEDHLNITCSATARPAPAISWKGTGTGIENSTESHFHSNGTTSVTSILRVKDPKTQVGKEVICQVLYLGNVIDYKQSLDKG

Kd (muCD200R-Fc; [11]): 43 nM
B3: DS-227: high affinity murine CD200-Fc, CD200 H82Y, T125I, muIgG2a Fc (protein)
chain: B2 chain
modifications: left off: small tags and cut ends
clinical score of paw arthritis (male DBA/1J mice): significantly more potent in reducing clinical score than wild type (DS-198)

T1/2 [10]: 118 s
fold higher binding affinity than wild type [10]: ~14 fold
B4: murine CD200 H82Y, T125I (Table 7 combination variant) (ligand, mouse, UniProt O54901 31-232, looked up)
chain: B2 chain
notes: extracellular domain; The Fc fusion with the same mutations is DS-227 (muIgG2a, called '43 nM muCD200-Fc'); also called combination variant H82Y, T1251; mouse CD200-his

The next lines start with the molecule.

Molecule: DS-155 (wild-type human CD200-Fc, IgG4 S228P) (from UniProt P41217 31-232; P01861 99-327) (Fc fusion)
t½ [1]: 21 s
Kd [2]: 971 nM
koff [2]: 0.0586 s⁻¹
kon [2]: 60600 M⁻¹ s⁻¹
Kd [3]: 174 nM
koff [3]: 0.0324 s⁻¹
kon [3]: 186000 M⁻¹ s⁻¹
Kd [4]: 1050 nM
koff [4]: 0.0608 s⁻¹
kon [4]: 57600 M⁻¹ s⁻¹
Kd [5]: 183 nM
koff [5]: 0.0329 s⁻¹
kon [5]: 180000 M⁻¹ s⁻¹
t½ [6]: 12 s
Kd [7]: 888 nM
koff [7]: 0.0564 s⁻¹
kon [7]: 63500 M⁻¹ s⁻¹
Kd [8]: 179 nM
koff [8]: 0.0326 s⁻¹
kon [8]: 183000 M⁻¹ s⁻¹

Molecule: DS-192 (human CD200 K130Y - IgG4 S228P Fc) (from UniProt P41217 31-232; P01861 99-327) (Fc fusion)
Kd [9]: 13 nM

B1: murine CD200 wild type (Table 7 'wt') (ligand, mouse, UniProt O54901 31-232, looked up)
chain: B2 chain with Y52H, I95T
notes: extracellular domain; The Fc fusion with the same CD200 part is DS-198 (muIgG2a); also called mouse CD200-his; CD200 monomer
T1/2 [10]: 17.3 s
